Results from patent US20100137420A1 (Johns Hopkins, published 2010).

Target: T1, protein A beads (UniProt P38507 37-477)
T1 construct: Used alone as a control in the immunodepletion; also called protein A beads alone
Assay: CSF incubated with protein A beads alone, SELDI-TOF read-out
Experimental: 20 μl of rabbit anti-human cystatin C or rabbit anti-fusin antisera (DakoCytomation, Carpinteria, Calif.) was bound to 10 μl of protein A beads equilibrated in PBS, pH 7.4, by rocking at room temperature for 1 hr. 10 μl of equilibrated protein A beads alone were used as another control. Each sample was washed three times with PBS pH=7.4. […] 30 μl of this CSF was added to each of the above sample and rocked for 1 hr at room temperature. 15 μl of the supernatant was applied to CM-10 arrays and analyzed as described above.

Binder	binding result
full-length cystatin C (13.4 kD peak) in human cerebrospinal fluid (other, also called biomarker J) SSPGKPPRLVGGPMDASVEEEGVRRALDFAVGEYNKASNDMYHSRALQVVRARKQIVAGVNYFLDVELGRTTCTKTQPNLDNCPFHDQPHLKRKAFCSFQIYAVPWQGTMTLSKSTCQDA	no binding
C-terminal cleavage product of cystatin C lacking the last 8 amino acids (12.5 kD peak) in human cerebrospinal fluid (other, Endogenous fragment in CSF of MS/CIS patients; also called biomarker A) SSPGKPPRLVGGPMDASVEEEGVRRALDFAVGEYNKASNDMYHSRALQVVRARKQIVAGVNYFLDVELGRTTCTKTQPNLDNCPFHDQPHLKRKAFCSFQIYAVPWQGTMTL	no binding
